Assay results reported in the supplement of paper PMC9170038.

Tested on: MS2 coat protein
Experiment: apparent KD of MS2 coat protein; designed switch direction (-1 OFF switch, 1 ON switch): -1; higher = weaker reporter binding
Method in brief: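 Designed RNA switches sharing common flanks were transcribed on Illumina chips by stalled E. coli RNA polymerase. They were titrated with SNAP-549-labelled MS2 coat protein, from 0.7 or 1.5 nM doubling to 3 µM, in Tris-HCl pH 7.5 buffer with KCl, MgCl2, BSA, DTT, tRNA and Tween-20. Titrations ran without input, with 200 uM small-molecule ligand, or with an oligonucleotide input. The apparent KD of each design is the median over its clusters, after curve-fitting of normalised cluster fluorescence.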

[1] = Eterna round: R95, input ligand: FMN 200 uM
[2] = Eterna round: R95, input ligand: microRNA oligo, concentration not stated
[3] = Eterna round: R95, input ligand: none
[4] = input ligand: microRNA oligo, concentration not stated

Row | Sequence | apparent KD of MS2 coat protein (input ligand: FMN 200 uM) | apparent KD of MS2 coat protein [4] | apparent KD of MS2 coat protein (input ligand: none) | further results
1 | UACCGGCGGACCGAAGCUUUUUGCUUGUUUUAUACUACAACAUGAGGAUCACCCAUGUGGUGGUGGUCCGUUGUAGU [JL ViennaUCT Bitein mod 1] (puzzle: Sensor v3, turn-off variant 2) |  |  |  | apparent KD of MS2 coat protein [1]: 63.9 nM; apparent KD of MS2 coat protein [2]: 16.7 nM; apparent KD of MS2 coat protein [3]: 58.6 nM
2 | UACCUGAGGCAAAGCUUUAGGUAAACAUGAGGAUCACCCAUGUAGGAUAUGGUAGGCAAAGCUUACCAGAAGGACAUGAUAAUU [Mat - Exclusion NG 3 - Mod of JL - D35] (Eterna round: R96, puzzle: Exclusion NG 3) | 544 nM | 79.2 nM | 80.4 nM | 
3 | UACGGGUCAGGAUAUGCGAGAGAGUGGGAAAUAGGAAGGUAGCAGAAGGGACAUGAGGAUCACCCAUGUGAGGC [JR_Exclu4_Sub099] (puzzle: Exclusion 4) |  |  |  | apparent KD of MS2 coat protein [2]: 23.8 nM
4 | UAGAAACAUGAGGAUCACCCAUGUGAGGAUAUGGCCCGCCCGGCGUGAGCUGGUUUUGUCAGAAGGCGCAUAGG [salish99_ex1_r4_020] (Eterna round: R97, puzzle: Exclusion 1) | 115 nM |  | 71.1 nM | 
5 | UAGAAUCGAGGAUAUACAUGAGGAUCACCCAUGUGUGGCCACACGGUGUGGUCGUCAGGUAGAAGGCGAUUACA [Exclusion 3 - Mod of Jieux's Gilly Gone Silly 23 v.3] (puzzle: Exclusion 3) |  |  |  | apparent KD of MS2 coat protein [1]: 19.9 nM; apparent KD of MS2 coat protein [2]: 22.8 nM; apparent KD of MS2 coat protein [3]: 53.2 nM
6 | UAGAUACAUGAGGAUCACCCAUGUGAGGAUAUGAGAAUUAGUUUAAAUGAAUUAAUUUUCAGAAGGCACGGAGG [JR_Ex1_Sub053] (Eterna round: R97, puzzle: Exclusion 1) | 180 nM |  | 123 nM | 
7 | UAGAUACAUGAGGAUCACCCAUGUGAGGAUAUGAGAAUUAUAUUAAAUGAAUUAAUUUUCAGAAGGCACAAAGG [JR_Ex1_Sub052] (Eterna round: R97, puzzle: Exclusion 1) | 177 nM |  | 166 nM | 
8 | UAGCAAUGAGAUGGGUUCCACAUGAGGAUCACCCAUGUCCAAGCUCAGAGCUCGUCUUAUUUGAGAUACUUCACUGU [Eternabot (L2) Solution 50] (Eterna round: R97, puzzle: Sensor, turn-off variant 1) | 41.1 nM |  | 43.4 nM | 
9 | UAGCAUUGCCAAAGGUAGUGCAAAACAUGAGGAUCACCCAUGUAGGAUAUGGUAGGCAAAGCUUACCAGAAGGACAUGAUAAAU [Mat - Exclusion NG 3 - Mod of JL - D18] (Eterna round: R96, puzzle: Exclusion NG 3) | 327 nM | 39.7 nM | 54.5 nM | 
10 | UAGGACAAAGGAUAUACGUGUUAUGAUCGGGAUAACAAAAGACAUGAGGAUCACCCAUGUAGAAGGUUGCUUGA [EX2 B.25] (Eterna round: R97, puzzle: Exclusion 2) | 26.2 nM |  | 17.8 nM | 
11 | UAGGCUUUAGGAUAUGCGUGUUGUAGUCGGCGAUGUGGUUCACAUGAGGAUCACCCAUGUAGAAGGAAAGUUUA [-17.2, -17 kcal, 26% A] (Eterna round: R97, puzzle: Exclusion 2) | 244 nM |  | 104 nM | 
12 | UAUAAGCUAGGAUAUCGCUGAGUAAACAUGAGGAUCACCCAUGUGGACCAUGAUUGCCACCGAGAAGGAGCGGGAA [Aonat] (puzzle: Exclusion 5) |  |  |  | apparent KD of MS2 coat protein [1]: 119 nM; apparent KD of MS2 coat protein [2]: 53.7 nM; apparent KD of MS2 coat protein [3]: 56.8 nM
13 | UAUAAUCGAGGAUAUACAUGAGGAUCACCCAUGUGUUGCCGCGUGAUGUGUUUGUCAGGUAGAAGGCGAUUAUA [Exclusion 3 - Mod of Jieux's Gilly Gone Silly 23 v.9] (puzzle: Exclusion 3) |  |  |  | apparent KD of MS2 coat protein [2]: 153 nM
14 | UAUAGUUCAGGAUAUGAUGAAUUAAACAUGAGGAUCACCCAUGUAGAUCCUGAAUUAACAUCAGAAGGGAAUAUUU [JL-ex5-4.49 Brourd mod] (Eterna round: R97, puzzle: Exclusion 5) | 17.4 nM |  | 14.3 nM | 
15 | UAUAUAUAGUAAGGAUAUAUAUUUAUUUUAUAAAUAGAAGGUACAGACAUGAGGAUCACCCAUGUUAUAAUAUGGACAUGUGGA [JMF's Solution 1] (Eterna round: R96, puzzle: Exclusion NG 1) |  | 45.3 nM |  | 
16 | UAUAUAUAGUAAGGAUAUAUAUUUUUUUUAUAAAUAGAAGGUACAGACAUGAGGAUCACCCAUGUUAUAAUAUGGACAUGUGGA [JMF's Solution 2] (Eterna round: R96, puzzle: Exclusion NG 1) |  | 77.4 nM |  | 

Row | Sequence | apparent KD of MS2 coat protein (input ligand: FMN 200 uM) | apparent KD of MS2 coat protein [4] | apparent KD of MS2 coat protein (input ligand: none) | further results
17 | UAUAUAUAGUAAGGAUAUGUAAUUGUUUUAUAAACAGAAGGUACUGACAUGAGGAUCACCCAUGUUUUAGUGUGGGCAUGUAGA [JMF's solution 33] (Eterna round: R96, puzzle: Exclusion NG 1) |  | 45.7 nM |  | 
18 | UAUAUAUAGUAAGGAUAUGUAUAUAUAUUAUAAACAGAAGGUACUGACAUGAGGAUCACCCAUGUUUUAGUGUGGGCAUGUAGA [JMF's solution 58] (Eterna round: R96, puzzle: Exclusion NG 1) |  | 53.8 nM |  | 
19 | UAUAUAUAGUAAGGAUAUGUAUAUAUUUUAGAAACAGAAGGUACUGACAUGAGGAUCACCCAUGUUUUAGUGUGGGCAUGUAGA [JMF's solution 67] (Eterna round: R96, puzzle: Exclusion NG 1) |  | 52.7 nM |  | 
20 | UAUAUAUAGUAAGGAUAUGUAUAUAUUUUAUAGACAGAAGGUACUGACAUGAGGAUCACCCAUGUUUUAGUGUGGGCAUGUAGA [JMF's solution 72] (Eterna round: R96, puzzle: Exclusion NG 1) | 105 nM | 50.4 nM | 50.5 nM | 
21 | UAUAUAUAGUAAGGAUAUGUAUUAAUUAUAUAAACAGAAGGUACUGACAUGAGGAUCACCCAUGUUUUAGUGUGGGCAUGUAGA [JMF's solution 80] (Eterna round: R96, puzzle: Exclusion NG 1) |  | 65.8 nM |  | 
22 | UAUAUAUAGUAAGGAUAUGUAUUAGUUUUAUAAACAGAAGGUACUGACAUGAGGAUCACCCAUGUUUUAGUGUGGGCAUGUAGA [JMF's solution 74] (Eterna round: R96, puzzle: Exclusion NG 1) |  | 76.6 nM |  | 
23 | UAUAUAUAGUAAGGAUAUGUAUUUAUUUUAGAAACAGAAGGUACUGACAUGAGGAUCACCCAUGUUUUAGUGUGGGCAUGUAGA [JMF's solution 23] (Eterna round: R96, puzzle: Exclusion NG 1) |  | 62 nM |  | 
24 | UAUAUAUAGUAAGGAUAUGUAUUUAUUUUAUAAACAGAAGGUACUGACAUGAGGAUCACCCAUGUUUUAGUGUGGGCAUGUAGA [JMF's solution 4] (Eterna round: R96, puzzle: Exclusion NG 1) |  | 67 nM |  | 
25 | UAUCAUCAUGUAGGAUAUGCGUGGCGAAGCUAUGCAGAAGGACAUGAGGAUCACCCAUGUUCUUGCGUCUGCGUACAGAUGCAA [Mat - Exclusion NG 1 - Mod of JL - D71] (Eterna round: R96, puzzle: Exclusion NG 1) | 218 nM | 38 nM | 66.7 nM | 
26 | UAUCCACAUGAGGAUCACCCAUGUCAGGAUAUGCACUAUGGGCCAAGUGGUCCAAGGAGCAGAAGGGACGAGAG [Eternabot (L2) Solution 25] (Eterna round: R97, puzzle: Exclusion 1) | 28.9 nM |  | 15.2 nM | 
27 | UAUCGGGACUGAGGAUAUUCGUUCGAGCACGAAGAAGAAGGUAGUGUCAGGGACAUGAGGAUCACCCAUGUGAUUUCAGUCCCA [JL ViennaUCT Erinle mod 6] (Eterna round: R96, puzzle: Exclusion NG 1) | 91.4 nM | 102 nM | 133 nM | 
28 | UAUGGUUAAGUCAGGAUAUACAUACAGAAAUCUGAGUAGAAGGGACAUGAGGAUCACCCAUGUAUGGUAGUGUU [Ex4 #55] (Eterna round: R97, puzzle: Brourd's mod of Exclusion 4) | 141 nM |  | 96.2 nM | 
29 | UAUGUGUCAGGAUAUUAGUAGUAAAUAAAUAAAAUUAUUACUGAGAAGGGACAUGAGGAUCACCCAUGUACCUU [JR_Ex4_Sub051] (Eterna round: R97, puzzle: Exclusion 4) | 22.6 nM |  | 16.2 nM | 
30 | UAUGUGUCAGGAUAUUAGUAGUAAAUGAAUAAAAUUAUUACUGAGAAGGGACAUGAGGAUCACCCAUGUGCCUC [Mat - Exclusion 4 - Eli Mod - D27] (Eterna round: R97, puzzle: Exclusion 4) | 345 nM |  | 35.2 nM | 
31 | UAUGUUAGCACAGGAUAUUGUUAUUUUUUUUUUCAAGAAGGGUGUACAUGAGGAUCACCCAUGUUAUGGUUUUAUCUUUUACAA [JR_ExcNG1_Sub012] (Eterna round: R96, puzzle: Exclusion NG 1) | 877 nM | 247 nM | 809 nM | 
